# Test results: US20060253917A1 (published 2006)
# Ends that are not written are not given here.
# B1: OsBAB61062 aa 463-511 (other)
# chain: AIDTYDDHRMAMAFSLAACADVPVTIRDPGCTRKTFPNYFDVLSTFVRN
# modifications: not fully specified; cysteine pairing not given here
# notes: prey, AD fusion; also called PN22844; O. sativa 3-Phosphoshikimate 1-carboxyvinyltransferase (EPSP Synthase)
# B2: OsPN22858 aa 27-154 (other)
# chain: DKPTDGFSSIDEAIGALHEGKFVIAVDDESGDNEGDLVMAATLADPESIAFMIRNGSGIISVGMKEEDLTRLMIPMMSPIAEIEDISAAASTVTVDARVGISTGVSAADRAKTIFTLASPDSKPTDLR
# notes: prey, AD fusion; also called Novel Protein 22858, Fragment, similar to Arabidopsis GTP Cyclohydrolase II
# B3: OsPN22874 aa 1-88 (other)
# chain: GTNPGFRVGEIRLSNRDIYFGTLLGNTPEGSGRYVWSDGCTYDGEWRRGMRHGQGKTMWPSGATYEGEYSGGYIYGEGTYTGSDNIVY
# notes: prey, AD fusion; also called Novel Protein 22874, Fragment, similar to Arabidopsis Putative Phosphatidylinositol-4-phosphate 5-kinase
# B4: OsBAA02730 aa 206-269 (other)
# chain: QDNGLVPIVEPEILLDGEHGIDRTFEVAQKVWAETFFYMAENNVMFEGILLKPSMVTPGAECKD
# notes: prey, AD fusion; also called PN22832; O. sativa Fructose-Bisphosphate Aldolase, Chloroplast Precursor
# B5: OsRCAA1 aa 68-210 (other)
# chain: DISDDQQDITRGKGFVDSLFQAPTGDGTHEAVLSSYEYLSQGLRTYDFDNTMGGFYIAPAFMDKLVVHISKNFMTLPNIKVPLILGIWGGKGQGKSFQCELVFAKMGINPIMMSAGELESGNAGEPAKLIRQRYREAADIIKK
# notes: prey, AD fusion; also called PN19842; O. sativa Ribulose Bisphosphate Carboxylase/Oxygenase Activase, Large Isoform A1
# B6: OsPN22866 aa 95-305 (other)
# chain: LLALSDDLVKSNVFIEGVSHKIRRQIEELERAGGVESGALTVDGVPVDTYLTRFVWDEGKYPTMSPLKEIAGSIQSQVSKIEDDMKVRGAEYNNVRSQLNAINRKQTGSLAVRDLSNLVKPEDMVTSEHLVTLLAVVPQYSQKDWLSSYESLDTFVVPRSSKKLYEDNEYALYTVTLFAKVVDNFKVRAREKGFQVRDFEYSSEAQESRKE
# notes: prey, AD fusion; also called Novel Protein PN22866, Fragment, Similar to A. Thaliana Vacuolar ATP Synthase Subunit C
# B7: OsPN23061 aa 94-203 (other)
# chain: VITWTSPKEQVFEMPTGGAAIMREGPNLLKLARKEQCLALGTRLRSKYKINYQFYRVFPNGEVQYLHPKDGVYPEKVNAGRQGVGQNFRSIGKNVSPIEVKFTGKNVFDI
# notes: prey, AD fusion; also called Hypothetical Protein OsContig3864, Similar to H. vulgare Photosystem I Reaction Center Subunit II, Chloroplast Precursor
# B8: OsPN23059 aa 193-333 (other)
# chain: DGIDYAAVTVQLPGGERVPFLFTIKNLVATGKPESFGGPFLVPSYRGSSFLDPKGRGGSTGYDNAVALPAGGRGDEEELAKENVKNASSSTGNITLSVTKSKPETGEVIGVFESVQPSDTDLGAKVPKDVKIQGVWYAQLE
# notes: prey, AD fusion; also called OsContig4331, O. sativa Putative 33 kDa Oxygen-Evolving Protein of Photosystem II
# B9: OsPN23059 aa 90-169 (other)
# chain: PRRLTFDEIQSKTYMEVKGTGTANQCPTVEGGVDSFAFKAGKYNMKKFCLEPTSFTVKAEGVAKNAPPEFQKTKLMTRLT
# notes: prey, AD fusion; also called OsContig4331
# B10: OsAAB46718 aa 82-126 (other)
# chain: SPEEWSPTGDTYVGGTTGLLIWAVTLAGLLGGGALLVYNTSALAG
# modifications: not fully specified
# notes: prey, AD fusion; also called PN22840; O. sativa Photosystem II 10 kDa Polypeptide
# B11: OsPN29982 aa 201-300 (other)
# chain: SPVVDNADVTETKPQTELPVHVMCAEWSSQKRLKKVQLETLERVYSRTKRPTNTMISSIVQVTSLPRKTIVKWFEDRREQDGVPDHRVAFKRSLSETIAS
# notes: prey, AD fusion; also called Novel Protein PN29982
# B12: OsPN30846 aa 1-266 (other)
# chain: APRRPSTFLNAVALGNVGAGKSAVLNSLIGHPVLPTGENGATRAPIVVDLQRDPGLSSKSIVLQIDSKSQRVSASSLRHSLQDRLSKGASSGSSRGRVEGINLKLRTSTAPPLKLVDLPGIDQRAVDDPMINEYAGHNDAILLVVIPAMQAADVASSRALRLAKDIDADGTRTVGVISKVDQAEGDAKTIACVQALLLNKGPKNLPDIEWVALIGQSVAIASAQAAGSENSLETAWNAEAETLRSILTGAPKSKLGRIALVDTIAK
# notes: prey, AD fusion; also called Novel Protein PN30846
# B13: OsPN30974 aa 38-178 (other)
# chain: GGYDHPGLIPGLPDEISLQILARMPRMGYLNAKMVSRSWKAAITGVELYRVRKELGVSEEWLYMLTKSDDGKLVWNAFDPVCGQWQRLPLMPGISHGGECKRGIPGLWLGDLLSAGIRVSDVIRGWLGQRDSLDRLPFCGC
# notes: prey, AD fusion; also called Novel Protein PN30974
# B14: PN29984 aa 1-38 (other)
# chain: APSSSSGTTSRPTASRTQQTKGRLTVTISLKAYSPGRT
# notes: prey, AD fusion; also called Novel Protein PN29984
# B15: PN29984 aa 5-41 (other)
# chain: SSGTTSRPTASRTQQTKGRLTVTISLKAYSPGRTRSG
# notes: as for B14
# B16: PN30844 aa 1-64 (other)
# chain: VAVRKKETRDGAMQTMPSRVQQGAADFEETLFVRCHLYCSGGAGTGKPLRFEPRPFLLSAVAVE
# notes: prey, AD fusion; also called Novel protein PN30844
# B17: PN30868 aa 167-336 (other)
# chain: YNELAQLRAGKSSKSKLLIAKFKSPKSLNGWEVDQGSYFPNTFASRFDEGIDASFDFSEAGQAVFSGFVFTRGGYVEISKRLSLPLGSTLDRYDGLLFSVGGNGRSYVVILETGPLADTSQSKKYFARMTTKVGFCRVRVPFSAFRPVNPQDPPLDPFLVHTLTIRFEPK
# notes: prey, AD fusion
# B18: PN29983 aa 1-131 (other)
# chain: GVETVVTDTAGNKVVVTGAADAAELKERIEARTKKAVQIVSAGAGPPPKKDKEEKKDKDKKGGGDDKKAEKEKGGGGGDKKAEKEKGGGDKPKEEKKAKEPKEETVTLKIRLHCEGCIDRIKRRICKIKGG
# notes: prey, AD fusion; also called Novel protein PN29983
# B19: PN30845 aa 1-64 (other)
# chain: GDQGRTYLFRVSNVGVKTSVNVRIQGHSLRLVEVEGTHPVQNVYDSLDVHVGQSVAFLVTLDKA
# notes: prey, AD fusion; also called Pectinesterase-like
# B20: PN30870 aa 1-446 (other)
# chain: GEEDEHPHEGRAGVERRRQHVVVLLPPPLAVLEHEVVEDGARDEPARDVGRRRRRHPGEPVGDDGDVDERDPLLLRERPAEQPHRHGQHGAGEEQPHQVAVQAVAAEQPGGADEPPDHRRVERDPVLGARPRAVRVQRLHVADVVDAAQHPPRHRQVHHAGDHRAHQLRRVHAPRRDLHVVPQLEVREERQRVHRADPPVDLEQQVRDRLPRQRVPDHELRDDVVPRLLVGGGLDDADGEGDDEGEGEGEEHPPPRQLHLLPVHERHDQRHGDAADEQHEEPPLRHLLVPPHQLRVHVHLRRRGAHRRPALPPDVPAVEQRHVHDRRREPQEPGPDGDGEQRAQVQLPVALVRRHVEVELPREHLGGVVLLPGRREQLVGEDWELPRVERVELPVAERHDEVDEHDEARGGVGDGRPRRHQRAPVVRRDAGPVQCEGADAEAVVAG
# notes: prey, AD fusion; also called Isp-4 like
# B21: PN30843 aa 164-221 (other)
# chain: RALQNFTAEELLDGGEKQYQCQRCRKKVVAKKKFTIDKAPYVLTIHLKRFSPFNPREK
# modifications: cysteine pairing not given here; also: AD fusion
# notes: prey, AD fusion; also called Ubiquitin specific protease-like
# B22: PN30857 aa 1-148 (other)
# chain: QDTRPLQAQRRRHGGGPQDRQREPSQGDFLRRQREEHPGGEEDRAPHGAGGHAAAGEGRGPRAGEHPQHQGGAAGAVGGGREGGGRAHLLRPRRHRDIGDRVGHTYCLSRLRRIAQNEQPSIHPCPSLAGQVIIRWEFRIGRDNNTFQ
# notes: prey, AD fusion; also called Novel protein PN30857
# B23: OsAAB53810 aa 6-145 (other)
# chain: IGPWGGNGGSAQDISVPPKKLLGVTIYSSDAIRSIAFNYIGVDGQEYAIGPWGGGESTSTEIKLGSSEQIKEISGTHGPVYDLADIVTYLKIVTSANNTYEAGVPNGKEFSIPLQDSGHVVGFFGRSGTLIDAIGIYVHP
# notes: prey, AD fusion; also called PN29086; O. sativa salT Gene Product
# B24: OsPIP2A aa 123-290 (other)
# chain: RKVSLVRAILYIVAQCLGAICGVGLVNAFPNAYFNRYGGGANTLAAGYSKGTGLAAEIIGTFVLVYTVFSATDPKRNARDSHVPVLAPLPIGFAVFMVHLATIPITGTGINPARSIGAAVIFNNEKAWHNHWIFWVGPFVGAAIAAFYHQYILRAGAIKALGSFRSNA
# notes: prey, AD fusion; also called PN29098; O. sativa Aquaporin
# B25: OsPN29076 aa 1-187 (other)
# chain: ERDISMVNSYPPSAFDCKGWNSASIFIYESDEEIQCLLDWLRDYDPREKELKDSILQWQRHFCHQSSSPLVDPPISGPKGEQLMELPNTKAAVILEQKYGLQLDQDTSDLPKKRGKKIKLSSEDRTYRCDCLEPVWPSRYHCLTCHETYLISTEFEGHNDGKCSKIHQSPDESRENDEPKVKVTKSD
# notes: prey, AD fusion; also called Novel Protein PN29076, Fragment
# B26: OsPN29077 aa 1-242 (other)
# chain: VEAQKKIEAAIRQKGIDENWEAALEHNPEAFARVVMLYVDMEVNGVPLKAFVDSGAQSTIISKSCAERCGLLRLLDQRYRGVAIGVGQSEILGRIHVAPIKIGHVFYPCSFTVLDAPNMEFLFGLDMLRKHQCIIDLKDNVLRVGGGEVSVPFLQEKDIPSHIRDEEKLSKLASLSQGAAGESSTAREKTPDAPPRAPTTGAPAVNPPQPQGGGDFEAKVTKLVELGFDRASVIQALKLFNG
# notes: prey, AD fusion; also called Novel Protein PN29077, Fragment, Similar to A. thaliana DNA-Damage Inducible Protein DDI1-Like
# Legend:
# OsGF14-c aa 1-150 = target: T1, OsGF14-c aa 1-150 (Oryza sativa, UniProt Q6ZKC0 1-150); experiment: Y2H; input trait library
# T1 construct: bait, Gal4 DBD fusion; also called PN12464; O. sativa 14-3-3 Protein Homolog GF14-c
# T1 sequence: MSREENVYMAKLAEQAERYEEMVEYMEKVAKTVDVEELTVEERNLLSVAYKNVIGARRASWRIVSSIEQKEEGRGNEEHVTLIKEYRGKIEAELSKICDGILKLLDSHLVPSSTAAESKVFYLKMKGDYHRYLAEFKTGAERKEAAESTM
# Method in brief: (§1)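 Using an automated, high-throughput yeast two-hybrid assay provided by Myriad Genetics Inc. (Salt Lake City, Utah), protein-protein interactions were detected. Against either the input trait or the output trait rice prey library, a bait clone encoding a defined amino-acid fragment of a rice protein was screened. The encoding sequences of the prey clones that were retrieved were then compared against databases by BLAST to identify the interacting proteins.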
# [1] = target: T2, OsERP (PN20696) aa 50-145 (Oryza sativa, UniProt Q0JBH9 50-144); experiment: Y2H; input trait library
# T2 construct: bait, Gal4 DBD fusion; also called Elicitor responsive protein
# T2 sequence: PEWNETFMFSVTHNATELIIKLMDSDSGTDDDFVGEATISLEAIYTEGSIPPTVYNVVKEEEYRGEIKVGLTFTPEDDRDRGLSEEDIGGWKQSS
# Method in brief: as §1
# OsCS aa 316-583 = target: T3, OsCS aa 316-583 (Oryza sativa, UniProt A2Y0X2 316-583); experiment: Y2H; output trait library
# T3 construct: bait, Gal4 DBD fusion; also called PN19707
# T3 sequence: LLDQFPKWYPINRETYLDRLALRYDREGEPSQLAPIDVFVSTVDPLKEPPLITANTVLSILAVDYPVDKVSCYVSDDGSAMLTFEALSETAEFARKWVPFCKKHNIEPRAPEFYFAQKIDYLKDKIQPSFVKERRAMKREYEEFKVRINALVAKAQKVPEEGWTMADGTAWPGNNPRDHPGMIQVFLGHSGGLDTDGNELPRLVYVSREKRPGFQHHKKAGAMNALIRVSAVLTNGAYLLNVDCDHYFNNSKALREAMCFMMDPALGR
# Method in brief: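 The values record whether an interaction was detected. In an automated, high-throughput yeast two-hybrid screen from Myriad Genetics Inc., rice protein fragments defined by amino-acid range were used as bait against rice prey clone libraries. Full-length genes were identified by BLAST comparison of the sequences encoding the interacting prey fragments against databases.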
Binder,binding result (OsGF14-c aa 1-150),binding result [1],other results
B1,binds,,
B2,binds,,
B3,binds,,
B4,binds,,
B5,binds,,
B6,binds,,
B7,binds,,
B8,binds,,
B9,binds,,
B10,binds,,
B11,binds,,
B12,binds,,
B13,binds,,
B14,,binds,
B15,,binds,
B16,,binds,
B17,,binds,
B18,,binds,
B19,,binds,
B20,,binds,
B21,,binds,
B22,,binds,
B23,,,binding result (OsCS aa 316-583): binds
B24,,,binding result (OsCS aa 316-583): binds
B25,,,binding result (OsCS aa 316-583): binds
B26,,,binding result (OsCS aa 316-583): binds
